The text below walks through data of patent US7387779B2, “Anti-angiogenic proteins and fragments and methods of use thereof” (Beth Israel Deaconess Medical Center, priority 1998, dated 2008).

Experiment [1] has as its system A-498 (renal carcinoma) cells. Put plainly: Proliferation of control cells, 3H-thymidine incorporation. It is filed as cell-based. The following applies: endostatin 0.1-10 μg/ml. The protocol: C-PAE cells were grown to confluence in DMEM with 10% fetal calf serum (FCS) and kept contact inhibited for 48 hours. Control cells were 786-O (renal carcinoma) cells, PC-3 cells, HPEC cells, and A-498 (renal carcinoma) cells. Cells were harvested with trypsinization (Life Technologies/Gibco BRL, Gaithersburg, Md., USA) at 37° C. for five minutes. A suspension of 12,500 cells in DMEM with 1% FCS was added to each well of a 24-well plate coated with 10 μg/ml fibronectin. The cells were incubated for 24 hours at 37° C. with 5% CO2 and 95% humidity. Medium was removed and replaced with DMEM containing 0.5% FCS and 3 ng/ml bFGF (R&D Systems, Minneapolis, Minn., USA). Unstimulated controls received no bFGF. Cells were treated with concentrations of Arresten or endostatin ranging from 0.01 to 50 μg/ml. All wells received 1 μCurie of ^3H-thymidine at the time of treatment. After 24 hours, medium was removed and the wells were washed with PBS. Cells were extracted with 1N NaOH and added to a scintillation vial containing 4 ml of ScintiVerse II (Fisher Scientific, Pittsburgh, Pa., USA) solution. Thymidine incorporation was measured using a scintillation counter. The results are shown in FIGS. 3A and 3B, which are a pair of graphs showing incorporation of ^3H-thymidine into C-PAE cells treated with varying amounts of Arresten (FIG. 3A) or endostatin (FIG. 3B). […]
On the technique in general: Uptake of a labelled nucleoside into DNA is a usual measure of proliferation.

In experiment [2] the test system is HUVECs. Put plainly: Endothelial cell migration, Boyden chamber. The class given is cell-based, human. The procedure: In the process of angiogenesis, endothelial cells not only proliferate but also migrate. Therefore, the effect of Canstatin on endothelial cell migration was assessed. The inhibitory effect of Canstatin and endostatin on FBS-induced chemotaxis was tested on human umbilical endothelial cells (HUVECs) using the Boyden chamber assay (Neuro-Probe, Inc., Cabin John, Md., USA). HUVECs cells were grown in M199 (Life Technologies/Gibco BRL, Gaithersburg, Md., USA) containing 10% FBS and 5 ng/ml DiC 18(3) living fluorescent stain (Molecular Probes, Inc., Eugene, Oreg., USA) overnight. After trypsinizing, washing and diluting cells in M199 containing 0.5% FBS, 60,000 cells were seeded in the upper chamber wells, together with or without Canstatin ([…]). M199 medium containing 2% FBS was placed in the lower chamber as a chemotactant. The cell-containing compartments were separated from the chemotactant with polycarbonate filters (Poretics Corp., Livermore, Calif., USA) of 8 μm pore size. […] Using a fluorescent high power field, several independent homogenous images were recorded by a digital SenSys™ camera operated with Image Processing Software PMIS (Roper Scientific/Photometrics, Tucson, Ariz., USA). Cells were counted by employing the OPTIMIZE 6.0 software-program (Media Cybernetics, Rochester, N.Y.) (Klemke, R. L. et al., 1994, J. Cell. Biol. 127:859-66).

Experiment [3] has as its system FLIP. Put plainly: FLIP protein levels in HUVEC. The class given is cell-based, human. The following applies: one hour after treatment, persisting up to 24 hours. The procedure: FLIP Protein Levels. HUVEC cells were treated as for the ERK assay, supra, and harvested at 0, 1, 3, 6, and 24 hours. FLIP protein levels in serum treated HUVEC cells and serum+Canstatin-treated HUVEC cells were quantified using anti-FLIP antibody (Sata, M. et al., 1998, J. Biol. Chem. 273:33103-6) and normalized for protein loading using levels of vinculin and plotted as a percentage of the 0 hour time points.

Experiment [4] concerns HPE cells. Put plainly: Proliferation, methylene blue staining. The class given is cell-based, human. The procedure:
In the methylene-blue staining method, 7000 cells were plated into each well of a 96-well plate, and treated as described above. Cells were then counted using the method of Oliver et al. (1989, J. Cell. Sci. 92:513-8). After 48 hours of treatment, all wells were washed with 100 μl of PBS, and the cells fixed with 10% formalin in neutral-buffered saline (Sigma Chemical Co., St. Louis, Mo., USA). The cells were then stained with 1% methylene blue (Sigma) in 0.01M borate buffer, pH 8.5. Wells were washed with 0.01M borate buffer, and the methylene blue extracted from the cells with 0.1N HCl/ethanol, and the absorbance measured in a microplate reader (Bio-Rad, Hercules, Calif., USA) at 655 nm. Polymyxin B (Sigma) at a final concentration of 5 μg/ml was used to inactivate endotoxin (Liu, S. et al., 1997, Clin. Biochem. 30:455-63).
Endothelial cell proliferation was performed by ^3H-thymidine incorporation or methylene blue staining as described above in Example 25. C-PAE cells (passages 2-4) were grown to confluence and kept contact inhibited for 48 hours. 786-O, PC-3 and WM-164 cells were used as non-endothelial controls, and were cultured as described in Example 25, above. HPE (human primary prostate epithelial cells) were cultured in keratinocyte-SFM supplemented with bovine pituitary and recombinant human EGF (Life Technologies/Gibco BRL, Gaithersburg, Md., USA). […]

For experiment [5], the system named is DU-145 cells. Put plainly: MTT cell viability assay. The following applies: 0-50 μg/ml. It is filed as cell-based. The protocol: Cell viability was measured by MTT assay, as described above.
The effects of Tumstatin-44-131 and Tum-5-125-C-A on cell viability of C-PAE cells were not seen in control PC-3 and DU-145 cells, as shown in FIGS. 52C and 52D. […] The activity of Tumstatin-44-131 is therefore specific to endothelial cells.
On the technique in general: Tetrazolium assays rely on reduction of a dye to a coloured formazan, in cell work by metabolically active cells.

B1: endostatin: tumor associated angiogenesis inhibitor used as comparator (protein, UniProt P39060 1572-1754, looked up)
Endostatin: HSHRDFQPVLHLVALNSPLSGGMRGIRGADFQCFQQARAVGLAGTFRAFLSSRLQDLYSIVRRADRAAVPIVNLKDELLFPSWEALFSGSEGPLKPGARIFSFDGKDVLRHPTWPQKSVWHGSDPNGRRLTESYCETWRTEAPSATGQASSLLGGRLLGQSAASCHHAYIVLCIENSFMTASK
modifications: Endostatin
Regarding B1, the effect on proliferation result in experiment [1] is “did not inhibit”.

B2: Canstatin: NC1 domain of the α2 chain of Type IV collagen (SEQ ID NO:6) (protein, listed as Homo sapiens)
chain: VSIGYLLVKHSQTDQEPMCPVGMNKLWSGYSLLYFEGQEKAHNQDLGLAGSCLARFSTMPFLYCNPGDVCYYASRNDKSYWLSTTAPLPMMPVAEDEIKPYISRCSVCEAPAIAIAVHSQDVSIPHCPAGWRSLWIGYSFLMHTAAGDEGGGQSLVSPGSCLEDFRATPFIECNGGRGTCHYYANKYSFWLTTIPEQSFQGSPSADTLKAGLIRTHISRCQVCMKNL
On to B2, for which the “concentration with significant effect on migration” value in experiment [2] came to 10 ng/mL. In addition, the FLIP protein levels entry in experiment [3] is on record as “decrease in FLIP protein levels”.

B3: Tumstatin: NC1 domain of the α3 chain of type IV collagen, residues 1-244 (SEQ ID NO:10) (protein, listed as Homo sapiens)
chain: GLKGKRGDSGSPATWTTRGFVFTRHSQTTAIPSCPEGTVPLYSGFSFLFVQGNQRAHGQDLGTLGSCLQRFTTMPFLFCNVNDVCNFASRNDYSYWLSTPALMPMNMAPITGRALEPYISRCTVCEGPAIAIAVHSQTTDIPPCPHGWISLWKGFSFIMFTSAGSEGTGQALASPGSCLEEFRASPFLECHGRGTCNYYSNSYSFWLASLNPERMFRKPIPSTVKAGELEKIISRCQVCMKKRH
As to B3, the “effect on proliferation of HPE cells” value in experiment [4] is recorded as “no inhibitory effects”.

B4: Tumstatin-44-131: residues 44 to 131 of full-length Tumstatin (SEQ ID NO:33) (protein)
chain: FSFLFVQGNQRAHGQDLGTLGSCLQRFTTMPFLFCNVNDVCNFASRNDYSYWLSTPALMPMNMAPITGRALEPYISRCTVCEGPAIAI
modifications: Tumstatin-45-132 (amino acids 45-132 of SEQ ID NO10)
Consider B4, for which the “effect on viability of DU-145 cells” value in experiment [5] was “not seen”.
